Assay [1] concerns the target HIV-1 Gag (Pr55), immature Gag lattice of NL4-3 VLPs (HIV-1 (NL4-3)). The following applies: scale: mol HA-Halo-gt-EnvCT/mol NL4-3.
Assay [2] shares this target.
For assay [3] the target is unchanged. In words: co-sedimentation; immature VLPs from HEK293T stripped of membrane with 0.05% NP-40 (Env trimers) or 0.075% NP-40 (mCD4 chimeras) or PBS, 15 minutes at 25°C, sedimented through 20% sucrose at 60,000 x g, 4°C, 1 hour; pellets blotted for gp41, CD4 and Pr55.
Assay [4] has the same target. The source holds these as a separate data set.

As for HA-Halo-gt-EnvCT (712YA) chimera, the restriction of the incorporation of Env-712YA trimers into VLPs (gp41/Pr55 by western blot; HEK293T co-transfected with chimera and NL4-3 pol(-) Env-712YA plasmids at 0 to 1.375 mol/mol) in assay [1] was 0.3. The substance also returned a double exponential loss curve of the competitive inhibition of 712YA Env incorporation into VLPs; half-maximal inhibition in assay [2] of 0.6 gp41/Pr55.

Consider “HIV-1 WT Env (NL4-3), gp120/gp41 trimer (complex)”, for which, in assay [3], the percent co-sedimenting with Gag after detergent was 10%. For the substance “monomeric CD4-EnvCT 712YA chimera (from UniProt P01730 26-420)”, the incorporation into VLPs released from transduced A2.01 T cells (western blot), mCD4-EnvCT relative to mCD4-ΔCT in assay [4] turned out to be 16.7 fold.

Values taken from paper PMC12090761.
